From paper PMC11209835 (Cell metabolism, 2024)
One block for each binder: values may come before it.

Biological target: T1, Flag-HA-tagged ALOX12, purified (UniProt P18054 1-663)
T1 sequence (looked up): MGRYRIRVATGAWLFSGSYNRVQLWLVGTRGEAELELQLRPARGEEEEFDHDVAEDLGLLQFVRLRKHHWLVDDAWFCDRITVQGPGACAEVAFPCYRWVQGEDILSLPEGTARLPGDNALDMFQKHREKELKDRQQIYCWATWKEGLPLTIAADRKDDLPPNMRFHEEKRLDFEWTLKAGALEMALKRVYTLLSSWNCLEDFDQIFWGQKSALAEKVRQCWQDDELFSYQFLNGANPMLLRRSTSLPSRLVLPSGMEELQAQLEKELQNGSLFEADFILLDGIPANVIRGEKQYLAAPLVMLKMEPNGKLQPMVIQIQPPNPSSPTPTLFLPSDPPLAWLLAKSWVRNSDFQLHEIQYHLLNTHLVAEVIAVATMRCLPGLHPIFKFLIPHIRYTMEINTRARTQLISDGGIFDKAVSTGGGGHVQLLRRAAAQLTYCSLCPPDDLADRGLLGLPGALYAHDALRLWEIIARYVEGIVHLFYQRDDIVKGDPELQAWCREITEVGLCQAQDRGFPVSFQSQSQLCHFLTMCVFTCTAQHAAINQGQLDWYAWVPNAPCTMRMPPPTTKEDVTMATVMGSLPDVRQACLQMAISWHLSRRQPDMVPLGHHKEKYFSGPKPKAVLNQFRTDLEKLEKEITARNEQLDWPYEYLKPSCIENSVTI
Assay: pull-down

binding result: binds
B1: GST-PHLDA2 Full-length (amino acids 1-152) (natural protein, human, UniProt Q53GA4 1-152, looked up)
chain: MKSPDEVLREGELEKRSDSLFQLWKKKRGVLTSDRLSLFPASPRARPKELRFHSILKVDCVERTGKYVYFTIVTTDHKEIDFRCAGESCWNAAIALALIDFQNRRALQDFRSRQERTAPAAPAEDAVAAAAAAPSEPSEPSRPSPQPKPRTP

binding result: binds
B2: GST-PHLDA2-PH (amino acids 7-101) (domain or fragment, human, UniProt Q53GA4 7-101, looked up)
chain: VLREGELEKRSDSLFQLWKKKRGVLTSDRLSLFPASPRARPKELRFHSILKVDCVERTGKYVYFTIVTTDHKEIDFRCAGESCWNAAIALALIDF
